Measured values as given in the supplement of paper PMC9112550, “Optimization of the antimicrobial peptide Bac7 by deep mutational scanning” (BMC Biology, 2022).

Tested on: Escherichia coli TOP10
Experiment: shrunken log2 fold change of peptide-encoding DNA abundance (4.5 h post-induction vs induction); higher = less antimicrobial activity (less host growth inhibition)
Settings: time post-induction: 4.5 h; library: site-saturation at positions 5, 18, 19, 20
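Also: peptides expressed intracellularly from a pBAD plasmid library in pooled LB shake-flask culture, induced with 0.3% L-arabinose, DNA abundance read by NGS, three biological replicates, DESeq2 with apeglm shrinkage.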

Sequence	shrunken log2 fold change
RRIRLRPPRLPRPRPRPVDMPRP	-0.375
RRIRHRPPRLPRPRPRPQKYPRP	-0.383
RRIRYRPPRLPRPRPRPSETPRP	-0.523
RRIRDRPPRLPRPRPRPVKKPRP	-0.0221
RRIRQRPPRLPRPRPRPWYIPRP	-0.0906
RRIRGRPPRLPRPRPRPRESPRP	1.26
RRIRNRPPRLPRPRPRPDKLPRP	-0.168
RRIRCRPPRLPRPRPRPHAKPRP	-0.446
RRIRNRPPRLPRPRPRPWGEPRP	0.157
RRIRIRPPRLPRPRPRPMAQPRP	0.00812
RRIRERPPRLPRPRPRPGPDPRP	-0.118
RRIRCRPPRLPRPRPRPGCYPRP	-0.501
RRIRFRPPRLPRPRPRPIREPRP	-0.0362
RRIRIRPPRLPRPRPRPYYSPRP	-0.213
RRIRCRPPRLPRPRPRPMPDPRP	-0.0379
RRIRYRPPRLPRPRPRPTHAPRP	-0.0504
RRIRQRPPRLPRPRPRPGFRPRP	0.0901
RRIRTRPPRLPRPRPRPYQKPRP	-0.197
RRIRWRPPRLPRPRPRPKDPPRP	-0.0777
RRIRDRPPRLPRPRPRPLWYPRP	-0.421
RRIRRRPPRLPRPRPRPHCIPRP	0.0457
RRIRDRPPRLPRPRPRPAAFPRP	0.549
RRIRARPPRLPRPRPRPEFRPRP	0.327
RRIRWRPPRLPRPRPRPFPNPRP	-0.138
RRIRLRPPRLPRPRPRPETYPRP	-0.215

Sequence	shrunken log2 fold change
RRIRPRPPRLPRPRPRPGDGPRP	0.979
RRIRDRPPRLPRPRPRPMICPRP	-0.0307
RRIRFRPPRLPRPRPRPSICPRP	-0.636
RRIRCRPPRLPRPRPRPPCWPRP	0.264
RRIRCRPPRLPRPRPRPINPPRP	-0.00918
RRIRIRPPRLPRPRPRPQPAPRP	0.213
RRIRLRPPRLPRPRPRPYKHPRP	-0.619
RRIRTRPPRLPRPRPRPALIPRP	0.0272
RRIRLRPPRLPRPRPRPQEQPRP	-0.00233
RRIRIRPPRLPRPRPRPHPWPRP	-0.319
RRIRTRPPRLPRPRPRPFASPRP	-0.00185
RRIRYRPPRLPRPRPRPAYWPRP	-0.029
RRIRMRPPRLPRPRPRPGCTPRP	0.245
RRIRLRPPRLPRPRPRPAMPPRP	0.234
RRIRDRPPRLPRPRPRPVPTPRP	0.247
RRIRFRPPRLPRPRPRPSGSPRP	-0.192
RRIRQRPPRLPRPRPRPARRPRP	0.486
RRIRTRPPRLPRPRPRPPHNPRP	0.0332
RRIRERPPRLPRPRPRPWECPRP	-0.0135
RRIRCRPPRLPRPRPRPIWYPRP	-0.564
RRIRWRPPRLPRPRPRPMRNPRP	0.315
RRIRERPPRLPRPRPRPGWEPRP	0.0307
RRIRNRPPRLPRPRPRPCRCPRP	-0.307
RRIRLRPPRLPRPRPRPACEPRP	0.317
RRIRGRPPRLPRPRPRPNIIPRP	0.0628

Sequence	shrunken log2 fold change
RRIRVRPPRLPRPRPRPDCEPRP	-0.0964
RRIRIRPPRLPRPRPRPMLNPRP	-0.526
RRIRDRPPRLPRPRPRPEWKPRP	-0.0135
RRIRCRPPRLPRPRPRPLYWPRP	-0.201
RRIRERPPRLPRPRPRPVYHPRP	-1.35
RRIRDRPPRLPRPRPRPEKYPRP	0.0312
RRIRDRPPRLPRPRPRPFQNPRP	0.0838
RRIRYRPPRLPRPRPRPRWFPRP	-0.0532
RRIRQRPPRLPRPRPRPVKNPRP	0.142
RRIRYRPPRLPRPRPRPWDCPRP	-0.00865
RRIRMRPPRLPRPRPRPIWHPRP	-0.0798
RRIRLRPPRLPRPRPRPVNEPRP	-0.0825
RRIRQRPPRLPRPRPRPFMRPRP	-0.0303
RRIRERPPRLPRPRPRPSWYPRP	-1
RRIRSRPPRLPRPRPRPIWKPRP	0.346
RRIRRRPPRLPRPRPRPAQGPRP	-0.179
RRIRKRPPRLPRPRPRPVQMPRP	0.241
RRIRFRPPRLPRPRPRPSHMPRP	-0.255
RRIRNRPPRLPRPRPRPLSDPRP	-0.0613
RRIRHRPPRLPRPRPRPEVPPRP	-0.00339
RRIRIRPPRLPRPRPRPENCPRP	-0.00941
RRIRGRPPRLPRPRPRPQISPRP	0.259
RRIRNRPPRLPRPRPRPYLSPRP	-0.169
RRIRARPPRLPRPRPRPFCRPRP	0.211
RRIRRRPPRLPRPRPRPPAFPRP	1.08

Sequence	shrunken log2 fold change
RRIRFRPPRLPRPRPRPHSEPRP	-0.276
RRIRERPPRLPRPRPRPGVCPRP	0.155
RRIRTRPPRLPRPRPRPVYEPRP	0.00717
RRIRVRPPRLPRPRPRPTTVPRP	-0.241
RRIRQRPPRLPRPRPRPQASPRP	0.0433
RRIRIRPPRLPRPRPRPQSKPRP	-0.493
RRIRERPPRLPRPRPRPDNLPRP	-0.00994
RRIRHRPPRLPRPRPRPTQVPRP	0.172
RRIRQRPPRLPRPRPRPNCDPRP	0.0233
RRIRERPPRLPRPRPRPGWNPRP	0.277
RRIRARPPRLPRPRPRPVEGPRP	0.329
RRIRNRPPRLPRPRPRPREMPRP	0.0274
RRIRLRPPRLPRPRPRPHVCPRP	-0.247
RRIRNRPPRLPRPRPRPMGTPRP	-0.0967
RRIRMRPPRLPRPRPRPDDVPRP	-0.00192
RRIRLRPPRLPRPRPRPPRYPRP	0.178
RRIRDRPPRLPRPRPRPAASPRP	0.049
RRIRSRPPRLPRPRPRPPPPPRP	1.03
RRIRMRPPRLPRPRPRPVICPRP	0.00711
RRIRNRPPRLPRPRPRPTPWPRP	0.161
RRIRDRPPRLPRPRPRPYRQPRP	0.0922
RRIRERPPRLPRPRPRPAQTPRP	0.0281
RRIRCRPPRLPRPRPRPINTPRP	-0.329
RRIRCRPPRLPRPRPRPRKQPRP	0.284
RRIRWRPPRLPRPRPRPNNPPRP	-0.631

Sequence	shrunken log2 fold change
RRIRSRPPRLPRPRPRPTLSPRP	0.0887
RRIRKRPPRLPRPRPRPYNPPRP	-1.13
RRIRERPPRLPRPRPRPATMPRP	-0.324
RRIRPRPPRLPRPRPRPMSFPRP	-0.0289
RRIRARPPRLPRPRPRPECDPRP	1.12
RRIRWRPPRLPRPRPRPHIVPRP	-0.102
RRIRPRPPRLPRPRPRPGFVPRP	0.143
RRIRMRPPRLPRPRPRPRTSPRP	0.623
RRIRYRPPRLPRPRPRPCTHPRP	-1.23
RRIRFRPPRLPRPRPRPTQCPRP	0.322
RRIRDRPPRLPRPRPRPIVHPRP	-0.25
RRIRFRPPRLPRPRPRPRMDPRP	-0.0641
RRIRSRPPRLPRPRPRPRKFPRP	0.015
RRIRCRPPRLPRPRPRPHFTPRP	-0.677
RRIRARPPRLPRPRPRPCGAPRP	0.737
RRIRMRPPRLPRPRPRPTCSPRP	0.134
RRIRSRPPRLPRPRPRPDCRPRP	0.0345
RRIRYRPPRLPRPRPRPEKNPRP	-0.526
RRIRARPPRLPRPRPRPSYYPRP	-0.731
RRIRCRPPRLPRPRPRPPFNPRP	-0.137
RRIRTRPPRLPRPRPRPQYQPRP	-0.502
RRIRHRPPRLPRPRPRPSCGPRP	-0.304
RRIRTRPPRLPRPRPRPQTSPRP	0.413
RRIRDRPPRLPRPRPRPYKIPRP	-1.46
RRIRERPPRLPRPRPRPPMAPRP	0.149

Sequence	shrunken log2 fold change
RRIRTRPPRLPRPRPRPQYYPRP	-0.266
RRIRERPPRLPRPRPRPPASPRP	0.127
RRIRSRPPRLPRPRPRPIWLPRP	0.222
RRIRPRPPRLPRPRPRPHEKPRP	-0.0384
RRIRDRPPRLPRPRPRPGINPRP	0.0194
RRIRARPPRLPRPRPRPQETPRP	0.0762
RRIRTRPPRLPRPRPRPVMEPRP	0.187
RRIRPRPPRLPRPRPRPNWDPRP	0.0377
RRIRERPPRLPRPRPRPEAAPRP	0.575
RRIRCRPPRLPRPRPRPVYHPRP	-0.53
RRIRYRPPRLPRPRPRPGTMPRP	-0.139
RRIRWRPPRLPRPRPRPEGPPRP	0.438
RRIRIRPPRLPRPRPRPCWYPRP	-0.461
RRIRHRPPRLPRPRPRPYERPRP	-0.00674
RRIRCRPPRLPRPRPRPHHGPRP	-0.261
RRIRQRPPRLPRPRPRPMFEPRP	0.118
RRIRCRPPRLPRPRPRPMSRPRP	0.0291
RRIRKRPPRLPRPRPRPPYSPRP	-0.433
RRIRNRPPRLPRPRPRPQSTPRP	-0.548
RRIRLRPPRLPRPRPRPMIHPRP	-0.186
RRIRGRPPRLPRPRPRPTTAPRP	1.31
RRIRHRPPRLPRPRPRPWSHPRP	0.0143
RRIRHRPPRLPRPRPRPLYMPRP	-0.00599
RRIRRRPPRLPRPRPRPEWMPRP	0.126
RRIRWRPPRLPRPRPRPSGLPRP	0.155
